Two molecules from patent CN116675768A (WUHAN ABCLONAL INC, dated 2023) can be followed below.

The assay concerns the target T1, 重组人NEFL蛋白 (human, UniProt P07196 400-543).
T1 construct: Expressed in E. coli Rosetta(DE3) from the vector pET-28a-sumo and purified on a Ni column; also called 人轻肽神经细丝蛋白(NEFL); 神经丝轻链
T1 sequence: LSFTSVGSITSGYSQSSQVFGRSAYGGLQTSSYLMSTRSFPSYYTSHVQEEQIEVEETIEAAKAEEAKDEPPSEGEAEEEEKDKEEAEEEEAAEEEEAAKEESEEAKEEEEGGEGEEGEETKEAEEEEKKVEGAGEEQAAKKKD
Put plainly: BLI (Gator); antibody 2 μg/mL, recombinant human NEFL 150 nM and 75 nM.

B1: 兔单克隆抗体1H8 (antibody, V domains shown)
VH: QSLEESGGRLVTPGTPLTLTCAVSGIDLSRYGIDWVRQAPGKGLEWIGTVSAGGDSWYASWAKGRFTISKTSSTTVDLEVTSPTTEDTATYFCAKGATLNLWGQGTLVTVSS
VL: DPVLTQTPSSTSAAVGGTVTINCQSSQNVYGNNWLAWYQKKPGQSPKLLIISASSLPSGVPSRFKGSGSGTQFTLTISDLECDDAATYYCAGGYSGYIYTFGGGTEVVVKG
notes: also called 抗人NEFL蛋白的兔单克隆抗体1H8; 捕获抗体
As a reminder, the Kd is the constant that tells how readily two partners part at equilibrium. As usually defined, the koff is the rate constant with which the complex falls apart. By kon is commonly meant the rate constant with which the complex forms. Take B1: the Kd was determined as 2.03 nM, the koff worked out at 0.000504 s⁻¹ and the on-rate constant (kon) came to 248000 M⁻¹ s⁻¹.

B2: 兔单克隆抗体2G10 (antibody, V domains shown)
VH: QSLEESGGRLVTPGTRLTLTCTVSGFSLGRYAMGWVRQAPGKGLEWIGIINSYGTTYYASWAKGRFTISKTSTTVDLKITSPTTEDTATYFCARDGYEDYGDYYNAFDPWGPGTLVTVSS
VL: DVVMTQTPASVSEPVGGTVTIKCQASQSIGVTLAWYQQKPGQPPKLLIYKASNLASGVSSRFKGSRSGTEYTLTISDLECADAATYYCQCTWYGPSFVGAFGGGTEVVVKG
notes: also called 抗人NEFL蛋白的兔单克隆抗体2G10; 2G10-biotin
As to B2, the Kd was found to be 3.2 nM, the off-rate constant (koff) stood at 0.00043 s⁻¹ and the kon is 134000 M⁻¹ s⁻¹.
